Measured values from the nanobody polyreactivity screen of Harvey et al. (2022).

Experiment: yeast display, Sf9 membrane polyspecificity reagent, FACS + sequencing; frameworks hold sequencing errors
In short: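 A synthetic nanobody library was expressed on Saccharomyces cerevisiae BJ5465 by galactose induction for 36–48 hours. The library was stained for 1 hour at 4 °C with 10% biotinylated, detergent-solubilized Sf9 membrane reagent and enriched with streptavidin microbeads before FACS. Low and high (top ~1%) gates were set on anti-HA fluorescence for expression and streptavidin fluorescence for reagent binding, and each polyreactivity label reflects the gate of origin.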

Row | Sequence | polyreactivity (PSR sort gate)
1 | QVQLVESGGGLVQAGGSLRLSCAASGRTFDEYAMGWYRQAPGKERVLVAAIDSGGSTTYADSVKGRFTISRDNAKNTVYLQINSLKPEDTAVYYCAASYPYWYITPRKFEYWGQGTQVTVSS | low polyreactivity
2 | QVQLVESGGGLVQAGGSLRLSCAASGRTFDEYAMVWYRQAPGKERELVAAINSSGNTYYADSVKGRFTISRDNAKNTVYLQMNSLKPEDTAVYYCAVRSYNTISDDMDYWGQGTQVTVSS | low polyreactivity
3 | QVQLVESGGGLVQAGGSLRLSCAASGRTFDGYAMGWYRQAPGKEREMVAAISRGGGNTRYADSVKGRFTISRDNAKNTVYLQMNSLKPEDTAVYYCNKLSFFPYITDEYWGQGTQVTVSS | high polyreactivity
4 | QVQLVESGGGLVQAGGSLRLSCAASGRTFDLNDMGWYRQAPGKEREFVADIDWSGGNTYYADSVKGRFIISRDNAKNTVYLQMNSLKPEDTAVYYCNARRKRSYDYWGQGTQVTVSS | low polyreactivity
5 | QVQLVESGGGLVQAGGSLRLSCAASGRTFDLNVMGWSRQAPGKERELVAASSFSGGSTYYADSVKGRFTLSRDNAKNTVYLQMNSLKPEDTAVYYCAADGYVRPPEMDYWGQGTQVTVSS | high polyreactivity
6 | QVQLVESGGGLVQAGGSLRLSCAASGRTFDNYAMGWYRQAPGKERELVAAISSSGGRTYYADSVKGRFTISRDNAKNTVYLQMNSLKPEDTAVYYCAAVWPVYRTHPGMDYWGQGTQVTVSS | high polyreactivity
7 | QVQLVESGGGLVQAGGSLRLSCAASGRTFDPNAMGWYRQAPGKERELVAAIRWTGTSTYYADSVKGRFTISRDNAKNTVYLQMNSLKPEDTAVDYCNARGSYRLRYDYWGQGTQVTVSS | high polyreactivity
8 | QVQLVESGGGLVQAGGSLRLSCAASGRTFDPYAMGWYRQAPGKERELVAAITSGDDTYYADSVKGRFTISRDNAKNTVYLQMNSLKPEDTAVYYCAADSFTPDYYSHDYWGQGTQVTVSS | low polyreactivity
9 | QVQLVESGGGLVQAGGSLRLSCAASGRTFDRNAMGWYRKAPGKERELVARITIDGSTNYADSVKGRFTISRDNAKNTVYLQMNSLKPEDTGVYYCAAYSASYGGYDYWGQGTQVTVSS | high polyreactivity
10 | QVQLVESGGGLVQAGGSLRLSCAASGRTFDRNTMGWYRQAPGKERELVAAISSSGGSTYYADSVKGRFTISRDNAKNTVYLQMNSLKPEDTAVYYCAVLSRQYFRYGYDYWGQGTQVTVSS | high polyreactivity
11 | QVQLVESGGGLVQAGGSLRLSCAASGRTFDRYAMGWYRQAPGKEREFVAVISSSGVRTNYADSVKGRFTISRDNAKNTVYFQMNSLKPEDTAVYYCAAVFWFRSLSGYIYDYWGQGTQVTVST | low polyreactivity
12 | QVQLVESGGGLVQAGGSLRLSCAASGRTFDSYAMGWYRQAPGKERELVAAISRAGGTNYADSVKGRFTISRDNAKLTVYLQMNRLKPDDTEVYYCAVRQAVYGLRSDFYYWGQGSQVTVSS | high polyreactivity
13 | QVQLVESGGGLVQAGGSLRLSCAASGRTFDVYAMGWDRQAPGKERELVAASTSGGSTYYADSVKGRFTISRDNAKNTVYLQMNSLKPEDTAVYYCATDVDKSLYDYWGQGTQVTVSS | low polyreactivity
14 | QVQLVESGGGLVQAGGSLRLSCAASGRTFDVYAMGWYRQAPGKERELVATISRSGGSTYYADSVKGRFTISRDNAKNTVYLQMNSLKPEDTAVYYCAARKRSPPYGYWGQGTQVTVSS | high polyreactivity
15 | QVQLVESGGGLVQAGGSLRLSCAASGRTFDWYAMGLYRQAPGKERELVAAISWSGGSTYYADSVKGRFTISRDNAKNTVYLQMNSLKPEDTAVYYCATDSYTEQSWVAEGYSGQGTQVTVSS | low polyreactivity
16 | QVQLVESGGGLVQAGGSLRLSCAASGRTFDWYVMGWYRQAPGKERELVASIPGTGSTYYADSVKGRFTISRDNAKNTVYLQMNSLKPEDTAVYYCNVAWIWGKYDYWGQGTQVTVSS | high polyreactivity
17 | QVQLVESGGGLVQAGGSLRLSCAASGRTFDYNAMGWYRQAPGKERELFAAISQSGGRTYYADSVKGRFTISRDNAKNTVYLQMYSLKPVDTAVYYCAAEAYGNRDYWGQGTQVTVSS | low polyreactivity
18 | QVQLVESGGGLVQAGGSLRLSCAASGRTFDYYAMGWYRQAPGKERELVAAITLSAGRTYYADSVKGRFTISRDNAKNTVYLQMNSLKPEDTAVYYCAARFRRLQRFYYWGQGTQVTVSS | high polyreactivity
19 | QVQLVESGGGLVQAGGSLRLSCAASGRTFDYYAMGWYRQAPRKERELVAAISSGGSTNYADSVKGRFTISRDNAKNTVYLQMNSLKPEATAVYYCAVSGIDDVKYDYWGQGTQVTVSS | low polyreactivity
20 | QVQLVESGGGLVQAGGSLRLSCAASGRTFDYYTMGWYRQAPGKERELVAAISWSGSTTYYADSVKGRFTISRDNAKNTVSLQMNSLKPEDTAVYYCAKSYRFPSVGPPGELDYWGQGTQVTVSS | high polyreactivity
21 | QVQLVESGGGLVQAGGSLRLSCAASGRTFEGNAMGWDRQAPGKERELVAALTYPGGDTHYADSVKGRCTISRDNPKNTVYLQMTSLKPEDTAGYYCAADWGWPHTDSMDYWGQGTQVTVSS | low polyreactivity
22 | QVQLVESGGGLVQAGGSLRLSCAASGRTFEGNAMGWYRQAPGKERELVAAISGSGGRTYYADSVKGRFTISRDNAKNTVYLQMNSLKPEDTAVYYAKLYSVYNPWRFNYWGQGTQVTVSS | high polyreactivity

Row | Sequence | polyreactivity (PSR sort gate)
23 | QVQLVESGGGLVQAGGSLRLSCAASGRTFEGYTMGWYRQAPGKERELVAAITWRGTSTYYADSVKGRFTISRDNAKNTVYLQMNSLKPEDTAVYYCNKVGWYHNYYYWGQGTQVTVSS | high polyreactivity
24 | QVQLVESGGGLVQAGGSLRLSCAASGRTFEGYTMGWYRQAPGKERELVSAISWSGARTYYADSVKGRFTISRDNAKNTVYLQMNSLKPEDTAVYYCAADRYWISLWYIMGYWGQGTQVTVSS | high polyreactivity
25 | QVQLVESGGGLVQAGGSLRLSCAASGRTFEHYAMVWYRPAPGKERELVAAITWSGVSTYYADSVKGRFTISRDNAKNTVYLQMNSLKPEDTAVYYCAAKWLGYGFDYWGQGTQVTVSS | low polyreactivity
26 | QVQLVESGGGLVQAGGSLRLSCAASGRTFERNAMGWYRQAPGKERELVAAITSGDGTSYADSVKGRFTISRDNAKNTVYLQMNSLKPEDTAVYYCAVSKGVFLVRGYAYHVGYWGQGTQVTVSS | low polyreactivity
27 | QVQLVESGGGLVQAGGSLRLSCAASGRTFERNAMGWYRQAPGKERQLVAAITSGDGTSYADSVKGRFTISRDNAKNTVYLQMNSLKPEDTAVYYCAAPFVGSVVIRRWDEYDYWGQGTQVTVSS | low polyreactivity
28 | QVQLVESGGGLVQAGGSLRLSCAASGRTFERYAMGWYRQAPGKERELVAAISSIGGSTYYADSVKGRFTISRDNAKNTVYLQMNSLKPEDTAVYYCADSVFYYASRYDYWGQGTKVTVSS | low polyreactivity
29 | QVQLVESGGGLVQAGGSLRLSCAASGRTFESYAMGWYRQAPGKERELVAAITSTDDRTYYADSVKGRFTISRDNAKNTVYLQMNSLKPEDTAVYYCAVESRRDDFEYDYWGQGTQVTVSS | low polyreactivity
30 | QVQLVESGGGLVQAGGSLRLSCAASGRTFEYYAMGWYRQAPGKERELVAAITSGGITYYADSVKGRFTISRDNAKYTVYLQMNSLKPEDTAVYYCNARHRYYRYGYWGQGTQVTVSS | high polyreactivity
31 | QVQLVESGGGLVQAGGSLRLSCAASGRTFEYYAMGWYRQAPGKERELVASITSSGVRTYYADSVKGRFTISRDNAKNTVYLQMNSLKPEDTAVYYCAKRLVYSRWGDYWGQGTQVTVSS | high polyreactivity
32 | QVQLVESGGGLVQAGGSLRLSCAASGRTFFGYAMGWYRQAPGKERELVAAITTSGGSTYYADSVKGRFTISRDNAKNTVYLQMNSLKPEDTAVYYCAADSTNYWLGFYYWGQGTQVTVSS | low polyreactivity
33 | QVQLVESGGGLVQAGGSLRLSCAASGRTFFHNPMGWYRQAPGKERELVAAISSGGGTYADSVKGRFTISRDNAKNTVYLQINSLKPEDTAVYYCAATLYNTEDDYWGQGTQVTVSS | low polyreactivity
34 | QVQLVESGGGLVQAGGSLRLSCAASGRTFFIYAMGWYRPAPGKERELVAAITYGGGRTFYADSVKGRFTISRDNAKYTVYLQMNSLKPEDTAVYYCAATVRGKRSTYDYWGQGTQVTVSS | high polyreactivity
35 | QVQLVESGGGLVQAGGSLRLSCAASGRTFFKNAMGWYRQAPGKERELVAAITSSGGTTYYADSVKGRFTISRDNAKNTVYLQMNSLKPEDTAVYYCATRTYPIRYGYGYWGQGTQVTVSS | high polyreactivity
36 | QVQLVESGGGLVQAGGSLRLSCAASGRTFFKYVMGWSRQAPGKERELVAAITWNGGRTNYADSVKGRFTISRDYAKNTVYLQMNSLKPEDTAVYYCAAVTSVNPSVFNGNYWGQGTQVTVSS | low polyreactivity
37 | QVQLVESGGGLVQAGGSLRLSCAASGRTFFLYALGWYRQATGKERELFARISTSGGGTYYADSVKGRFTISRDHAKNTVYLQMISLKPEDTAVYYCAARTDRGQRRAGGYDFWGQGTQVTVSS | high polyreactivity
38 | QVQLVESGGGLVQAGGSLRLSCAASGRTFFPNAMGWYRQAPGKERELVASITSRGGGTYYADSVKGRFTISRDYAKNTVYLQMNSLKPEDTAVYYCADDRYYFSPGYNWWSEGYDYWGQGTQVTVSS | low polyreactivity
39 | QVQLVESGGGLVQAGGSLRLSCAASGRTFFPYAMGWYRQAPGKEREFVAAITWSGGSTTYADSVKGRFTISRDNAKNTVYLQMTSLKPEDTAVYYCNDGRRRSYSYDYWGQGTQVTVSS | low polyreactivity
40 | QVQLVESGGGLVQAGGSLRLSCAASGRTFFPYGMGWYRQAPGKERELVASISYSGGITYYADSVKGRFTISRDNAKNTVYLQMNSLKPEDTAVYYCSVRTIWRFRYDYWGQGTQVTVSS | high polyreactivity
41 | QVQLVESGGGLVQAGGSLRLSCAASGRTFFQYGMGWYRQAPGKERELVASITRSGGRTNYADSVKGRFTISRDNAKNTVYLQMNSLKPEDTAVYYCAAYYYGSAAYGYGYNYWGQGTQVTVSS | high polyreactivity
42 | QVQLVESGGGLVQAGGSLRLSCAASGRTFFRNAMGWYRQAPGKERELVAAISKRGGSTRYADSVKGRFTISRDNAKNTAYLQMNSLQPEDTAVYYCAADSRLEYSHATLYYCGQGTQVTVSS | high polyreactivity
43 | QVQLVESGGGLVQAGGSLRLSCAASGRTFFRYGMGWYRQAPGKEREFVAAITRSGTTTYYADSVKGRFTISRDNAKNTVYLQMNSLKPEDTAVYYCAAQRAARVDGKSDYWGQGTQVTVTS | low polyreactivity
